B1: Platelet-activating factor acetylhydrolase IB subunit beta (Mus musculus), P63005 (parent)
chain: MVLSQRQRDELNRAIADYLRSNGYEEAYSVFKKEAELDMNEELDKKYAGLLEKKWTSVIRLQKKVMELESKLNEAKEEFTSGGPLGQKRDPKEWIPRPPEKYALSGHRSPVTRVIFHPVFSVMVSASEDATIKVWDYETGDFERTLKGHTDSVQDISFDHSGKLLASCSADMTIKLWDFQGFECIRTMHGHDHNVSSVAIMPNGDHIVSASRDKTIKMWEVQTGYCVKTFTGHREWVRMVRPNQDGTLIASCSNDQTVRVWVVATKECKAELREHEHVVECISWAPESSYSSISEATGSETKKSGKPGPFLLSGSRDKTIKMWDVSTGMCLMTLVGHDNWVRGVLFHSGGKFILSCADDKTLRVWDYKNKRCMKTLNAHEHFVTSLDFHKTAPYVVTGSVDQTVKVWECR
partner: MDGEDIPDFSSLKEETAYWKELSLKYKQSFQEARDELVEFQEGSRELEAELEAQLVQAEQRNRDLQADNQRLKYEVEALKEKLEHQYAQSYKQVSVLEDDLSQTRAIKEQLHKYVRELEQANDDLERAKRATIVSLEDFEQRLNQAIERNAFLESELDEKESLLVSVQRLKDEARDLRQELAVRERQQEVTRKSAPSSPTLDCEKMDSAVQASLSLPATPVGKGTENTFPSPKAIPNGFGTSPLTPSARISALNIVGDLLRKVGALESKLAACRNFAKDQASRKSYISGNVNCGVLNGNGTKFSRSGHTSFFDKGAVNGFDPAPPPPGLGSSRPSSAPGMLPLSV

We go through 2 variants from IntAct's records for PubMed 22114287.

Variants of B1 are the subject of the experiment. The settings on record: with ndel1_human NDEL1, Q9GZM8.
In the case of MVLSQRQRDELNRAIADYLRSNGYEEAYSVFKKEAELDMNEELDKKYAGLLEKKWTSVIRLQKKVMELESKLNEAKEEFTSGGPLGQKRDPKEWIPRPPEKYALSGHRSPVTRVIFHPVFSVMVSASEDATIKVWDYETGDFERTLKGHTDSVQDISFDHSGKLLASCSADMTIKLWDFQGFECIRTMHGHDHNVSSVAIMPNGDHIVSASADKTIKMWEVQTGYCVKTFTGHREWVRMVRPNQDGTLIASCSNDQTVRVWVVATKECKAELREHEHVVECISWAPESSYSSISEATGSETKKSGKPGPFLLSGSRDKTIKMWDVSTGMCLMTLVGHDNWVRGVLFHSGGKFILSCADDKTLRVWDYKNKRCMKTLNAHEHFVTSLDFHKTAPYVVTGSVDQTVKVWECR [R212A], the “effect of a mutation on the interaction” value is on record as “disrupting interaction”. The same measure for MVLSQRQRDELNRAIADYLRSNGYEEAYSVFKKEAELDMNEELDKKYAGLLEKKWTSVIRLQKKVMELESKLNEAKEEFTSGGPLGQKRDPKEWIPRPPEKYALSGHRSPVTRVIFHPVFSVMVSASEDATIKVWDYETGDFERTLAGHTDSVQDISFDHSGKLLASCSADMTIKLWDFQGFECIRTMHGHDHNVSSVAIMPNGDHIVSASRDKTIKMWEVQTGYCVKTFTGHREWVRMVRPNQDGTLIASCSNDQTVRVWVVATKECKAELREHEHVVECISWAPESSYSSISEATGSETKKSGKPGPFLLSGSRDKTIKMWDVSTGMCLMTLVGHDNWVRGVLFHSGGKFILSCADDKTLRVWDYKNKRCMKTLNAHEHFVTSLDFHKTAPYVVTGSVDQTVKVWECR [K147A]: “with no effect”.
